Molecular target: T1, Human phosphatase PRL3, amino acids 1–169 (wild type) (human, UniProt O75365 1-169)
T1 construct: N-terminal extension Gly-Ser-His left after thrombin cleavage of the His tag; phosphatase of regenerating liver 3 (PRL3), human, amino acids 1-169; also called PRL3-wt; wild-type PRL3; not shown: His6, N-terminal, cleaved
Experiment: ITC; syringe 160 μM PRL2 or PRL3, cell 16 μM CNNM3 CBS-pair domain as a GST fusion; 22 °C; 30 injections of 10 μl; fitted to a single set of identical sites
Details: both partners purified

T1 sequence (O75365 other isoform, or with tags, fused parts or gaps): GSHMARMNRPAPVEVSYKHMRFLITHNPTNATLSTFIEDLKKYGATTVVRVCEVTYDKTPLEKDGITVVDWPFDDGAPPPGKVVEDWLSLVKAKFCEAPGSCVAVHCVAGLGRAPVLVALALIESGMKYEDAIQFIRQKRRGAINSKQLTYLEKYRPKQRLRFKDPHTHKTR

Kd: 11 nM
B1: CNNM3 CBS-pair domain as a GST fusion (domain or fragment, human)
chain: LRCRTVEDVLTPLEDCFMLDASTVLDFGVLASIMQSGHTRIPVYEEERSNIVDMLYLKDLAFVDPEDCTPLSTITRFYNHPLHFVFNDTKLDAVLEEFKRGKSHLAIVQKVNNEGEGDPFYEVLGLVTLEDVIEEIIRSEILDE
notes: CBS-pair domain of human CNNM3; also called CBS-pair (Bateman) domain of CNNM3

Source: PMC5427921, “PRL3 phosphatase active site is required for binding the putative magnesium transporter CNNM3” (Scientific Reports, 2017)
